How the values were obtained:
[1] = target: T1, MBP (UniProt P0AEX9 27-396 = MBP); assay: Native-PAGE mobility shift, Coomassie staining (Fig. 6D)
[2] = target: T1, MBP; assay: Native-PAGE mobility shift, Coomassie staining (Fig. 6C)

B1: 绿色荧光蛋白(GFP)纳米抗体 D5 (VHH)
VHH: DVQLQESGGGLVQPGGSLRLSCAASGIIFSIYDMGWYRQAPGKQRELVALITIHRSTNYEDSVKGRFTISRDNAKNTVYLQMNSLKPEDTAVYYCNANGVNYQYWGQGTQVTVSS
modifications: biotinylated (Sulfo-NHS-LC-biotin kit) in the ELISA of Example 5; not biotinylated in the Native-PAGE of Example 6
notes: Printed molecular weight 16.6 KDa; also called D5抗体; D5-biotin; not shown: Flag tag from vector pBAD24-Flag-His; C-terminal 6xHis tag from vector pBAD24-Flag-His
B1: no binding (tested: 3μg MBP和3μg纯化的纳米抗体) [1].

B2: 绿色荧光蛋白(GFP)纳米抗体 E6 (VHH)
VHH: DVQLQESGGGLVQAGGSLRLSCAASGRFVSSYIMGWFRQAPGKEREAVASILRSVDATYYADSVKGRFTISRDNDKNTVYLQMNSLKPEDTAVYYCATRARGYFGSFGRLWPDDRQYDYWGQGTQVTVSS
modifications: biotinylated (Sulfo-NHS-LC-biotin kit) in the ELISA of Example 5; not biotinylated in the Native-PAGE of Example 6
notes: Printed molecular weight 18.4 KDa; also called E6抗体; pBAD24-Flag-E6-His; not shown: Flag tag from vector pBAD24-Flag-His; C-terminal 6xHis tag from vector pBAD24-Flag-His
B2: no binding (tested: 3μg MBP和3μg纯化的纳米抗体) [1].

B3: 绿色荧光蛋白(GFP)纳米抗体 A12 (VHH)
VHH: DVQLQESGGGLVQAGGSLRLSCAASGGTFSILSLGWFRQAPGKEREFVAAISRSEGSTDYADFVKGRFMISRENAKNTAYLQMNSLKPEDTAVYFCAASYARRLSTTASRVLYWGQGTQVTVSS
modifications: biotinylated (Sulfo-NHS-LC-biotin kit) in the ELISA of Example 5; not biotinylated in the Native-PAGE of Example 6
notes: Printed molecular weight 15.7 KDa; also called A12抗体; pADL-10b-A12-His; not shown: C-terminal 6xHis tag from vector pADL-10b-His
B3: no binding (tested: 3μg MBP和3μg纯化的纳米抗体) [2].
